Measured values taken from article PMC11001197, “The PII protein interacts with the Amt ammonium transport and modulates nitrate/nitrite assimilation in mycobacteria” (Frontiers in Microbiology, 2024).

Biological target: T1, M. tuberculosis AccA3, His tag fusion (α-subunit of the acyl-CoA carboxylases) (M. tuberculosis, UniProt P96890 1-600)
T1 construct: also called His-AccA3; AccA3-His6
Assay: pull-down
Conditions: both partners purified

T1 sequence (P96890 whole entry, the tested form may be a part): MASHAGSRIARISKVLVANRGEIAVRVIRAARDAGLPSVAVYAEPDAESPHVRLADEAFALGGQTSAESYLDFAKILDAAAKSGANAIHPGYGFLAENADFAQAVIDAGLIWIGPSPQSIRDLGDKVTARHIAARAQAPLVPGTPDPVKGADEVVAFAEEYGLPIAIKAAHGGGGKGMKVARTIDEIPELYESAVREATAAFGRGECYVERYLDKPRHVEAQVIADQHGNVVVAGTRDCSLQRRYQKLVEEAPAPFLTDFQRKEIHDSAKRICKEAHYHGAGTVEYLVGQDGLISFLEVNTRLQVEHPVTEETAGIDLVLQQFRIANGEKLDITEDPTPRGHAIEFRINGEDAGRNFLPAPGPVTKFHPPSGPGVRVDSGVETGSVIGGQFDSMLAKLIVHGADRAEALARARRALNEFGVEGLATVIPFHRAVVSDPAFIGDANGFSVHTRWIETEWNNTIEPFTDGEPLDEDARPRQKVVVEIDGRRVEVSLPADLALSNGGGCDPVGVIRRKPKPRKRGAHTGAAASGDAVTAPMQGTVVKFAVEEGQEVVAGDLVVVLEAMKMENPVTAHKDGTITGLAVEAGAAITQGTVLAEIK

B1: Azospirillum brasilense GlnB (PII protein), without tags (natural protein, A. brasilense, UniProt P21193 1-112, looked up)
chain: MKKIEAIIKPFKLDEVKEALHEVGIKGITVTEAKGFGRQKGHTELYRGAEYVVDFLPKVKIEVVMEDSLVERAIEAIQQAAHTGRIGDGKIFVTPVEEVVRIRTGEKGGDAI
notes: also called Ab-GlnB; PII (Ab); source: E. coli (plasmid pLH25PET, pET28a), obtained without tags according to Gerhardt et al. (2015, 2017)
B1: binds.
